Data as given in paper doi:10.1101/2023.04.09.536162v1.

Substrate: C[C@@H](O)[C@H](N)C(=O)O
Assay: purified protein
Conditions: natural substrate

B1: NmLTA (Neptunomonas marina) (protein)
chain: MASNDSCIEDTVSFTSDNIAAAAPEIVQAMAQACQGNAQPYGGDALTQNVEAQLKAIFECDLQLFLVPTGSAANAISLAALTPPWGAILCHQESHINNDECGAPEFFTAGAKLIAVAGTHGKLDPQALTQAARNKRGDVHSVEPTTVSITQATEVGSIYALDELNEIGQICRNEGLKLHMDGARFANALSALGCTPAEMTWKAGVDVLSFGATKNGSLCAEAIILFDKSYAQEIAFRRKRGGHLLSKMRFLSAQMHAYLADDLWLTNARHANLMAARLAAGLSALSRVSLIAPTESNIIFCRMPTKMIAALQQQGFQFYHDRWGDGIVRLVTSFATTQAQVDTFIAAAAQLNQNTD
Km: 12.3 mM
kcat: 805.7 s⁻¹
